The values below come from paper PMC5526998, “Structural analysis of the regulatory mechanism of MarR protein Rv2887 in M. tuberculosis” (Scientific Reports, 2017).

Series [1] deals with T1, Rv2887 (MarR family regulator) (Mycobacterium tuberculosis H37Rv) (UniProt P9WME9).
T1 sequence: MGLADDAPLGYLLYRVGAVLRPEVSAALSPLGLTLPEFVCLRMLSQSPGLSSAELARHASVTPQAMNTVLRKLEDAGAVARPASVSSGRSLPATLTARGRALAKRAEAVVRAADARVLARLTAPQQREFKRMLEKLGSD
Description: DNase I footprinting.

Series [2] deals with T1, Rv2887 (MarR family regulator) (Mycobacterium tuberculosis H37Rv). Description: EMSA. For orientation: In EMSA bound probe runs differently from free probe, usually more slowly.
Series [3] concerns the target T2, Rv2887 (crystal with DNA) (Mycobacterium tuberculosis H37Rv, UniProt P9WME9 1-139).
T2 sequence: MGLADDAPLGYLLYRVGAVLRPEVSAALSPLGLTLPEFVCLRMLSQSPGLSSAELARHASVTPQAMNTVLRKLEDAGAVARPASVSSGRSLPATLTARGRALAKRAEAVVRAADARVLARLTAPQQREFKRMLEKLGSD
Description: X-ray crystal structure (2.5 A). Particulars: protein: recombinant; tags: N-terminal 6xHis (pET-28a); chain copies: 4; blunt.

Regarding “CGAACTCAAGATCCAGCGATTCAGTCATGTGTTCATATATATCAACGGCCCTGATATATGTCAACACAGTTGACATTCGCGCACCCTTGGTTGCCGGCCGTCAGCTGAACGGCGGTCGTCGATCGACGAGCCGGGACAATTGACCGCCACCGCGCCACACCCGCGCCACCCAGTCGCGGTCGTCGTCGGTGACCAGATTGGACATCACCCGCACGGCGATGTTCATCAATGCGGTGGAGCGCATCGTGATGGGC (double strand) [Rv0560c upstream probe (6-FAM)]”, the binding entry in series [1] is recorded as “binds”. For “CGAACTCAAGATCCAGCGATTCAGTCATGTGTTCATATATATCAACGGCCCTGATATATGTCAACACAGTTGACATTCGCGCACCCTTGGTTGCCGGCCGTCAGCTGAACGGCGGTCGTCGATCGACGAGCCGGGACAATTGACCGCCACCGCGCCACACCCGCGCCACCCAGTCGCGGTCGTCGTCGGTGACCAGATTGGACATCACCCGCACGGCGATGTTCATCAATGCGGTGGAGCGCATCGTGATGGGC (double strand) [Rv0560c upstream probe (biotin)]”, the binding entry in series [2] is “binds”.

B1: 30 bp Rv0560c operator duplex (dsDNA)
DNA 1: CGATCGACGACCGCCGTTCAGCTGACGTCG
DNA 2: CGACGTCAGCTGAACGGCGGTCGTCGATCG
As for B1, the binding result in series [3] is on record as “binds”.
